Laboratory results: PMC10504261, “Metabolism of plant-derived toxins from its insect host increases the success of the entomopathogenic fungus Beauveria bassiana” (The ISME Journal, 2023)

Assays:
C=CCN=C=S = assay: purified protein; settings: 4 mM GSH (saturating); ITC 25-800 µM; n = 4
S=C=NCCc1ccccc1 = assay: purified protein; settings: 4 mM GSH (saturating); ITC 25-800 µM; n = 4
BbGSTUre2p3 = biological target: T1, BbGSTUre2p3 (Beauveria bassiana, UniProt J4KPJ4); assay: GSH conjugation, absorbance at […] nm, Michaelis-Menten fit; settings: read-out: KM / μM; 4 mM GSH (saturating); ITC 25-800 µM; n = 4
T1 construct: gene BBA_03339

BbGSTUre2p2 = biological target: T2, BbGSTUre2p2 (Beauveria bassiana, UniProt J5JP22); assay: as above; settings: read-out: KM / μM; 4 mM GSH (saturating); ITC 25-800 µM; n = 4
T2 construct: gene BBA_04201

BbGSTe1 = biological target: T3, BbGSTe1 (Beauveria bassiana, UniProt J4UX82); assay: as above; settings: read-out: KM / μM; 4 mM GSH (saturating); ITC 25-800 µM; n = 4
T3 construct: gene BBA_00672

BbGSTN21 = biological target: T4, BbGSTN21 (Beauveria bassiana, UniProt J5JKP3); assay: as above; settings: read-out: KM / μM; 4 mM GSH (saturating); ITC 25-800 µM; n = 4
T4 construct: gene BBA_07410
T4 sequence (J5JKP3 entry or part of it): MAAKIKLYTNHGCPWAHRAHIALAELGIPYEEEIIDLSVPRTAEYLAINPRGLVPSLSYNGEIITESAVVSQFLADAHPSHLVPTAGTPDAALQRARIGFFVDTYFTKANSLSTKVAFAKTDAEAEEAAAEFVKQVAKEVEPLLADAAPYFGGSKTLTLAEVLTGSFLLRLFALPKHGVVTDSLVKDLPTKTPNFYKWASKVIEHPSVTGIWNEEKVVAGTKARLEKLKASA

T1 sequence (J4KPJ4 entry or part of it): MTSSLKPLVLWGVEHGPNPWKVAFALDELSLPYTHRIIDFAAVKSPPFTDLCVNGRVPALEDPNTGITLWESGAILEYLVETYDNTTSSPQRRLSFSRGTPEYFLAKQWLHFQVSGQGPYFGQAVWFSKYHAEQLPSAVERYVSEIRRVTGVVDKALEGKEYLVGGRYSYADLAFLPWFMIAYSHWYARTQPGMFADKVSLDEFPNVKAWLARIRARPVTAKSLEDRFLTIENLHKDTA
T2 sequence (J5JP22 entry or part of it): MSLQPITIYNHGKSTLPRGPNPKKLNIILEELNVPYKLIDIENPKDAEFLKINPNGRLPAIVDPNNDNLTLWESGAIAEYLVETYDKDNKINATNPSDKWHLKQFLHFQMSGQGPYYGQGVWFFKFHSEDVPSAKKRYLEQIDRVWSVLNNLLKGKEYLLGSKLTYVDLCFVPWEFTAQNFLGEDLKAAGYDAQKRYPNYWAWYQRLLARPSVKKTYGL
T3 sequence (J4UX82 entry or part of it): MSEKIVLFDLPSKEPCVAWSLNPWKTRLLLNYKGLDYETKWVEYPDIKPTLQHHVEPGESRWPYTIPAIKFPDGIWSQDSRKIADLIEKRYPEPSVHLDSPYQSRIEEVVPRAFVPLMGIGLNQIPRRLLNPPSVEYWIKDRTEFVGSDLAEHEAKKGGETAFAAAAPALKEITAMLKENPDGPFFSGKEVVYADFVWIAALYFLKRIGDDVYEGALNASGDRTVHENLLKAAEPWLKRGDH

Molecule | Km (C=CCN=C=S) | Vmax (C=CCN=C=S) | kcat (C=CCN=C=S) | kcat/Km (C=CCN=C=S) | Km (S=C=NCCc1ccccc1) | Vmax (S=C=NCCc1ccccc1) | kcat (S=C=NCCc1ccccc1) | kcat/Km (S=C=NCCc1ccccc1) | Km (BbGSTUre2p3) | Km (BbGSTUre2p2) | Km (BbGSTe1) | Km (BbGSTN21)
BbGSTe1 (Beauveria bassiana ARSEF 2860) | 312.75 ± 100.06 µM | 0.41 µmol/min/mg | 0.19 ± 0.02 s⁻¹ | 590 ± 80 M⁻¹ s⁻¹ | 860.76 ± 561.56 µM | 1.9 µmol/min/mg | 0.88 ± 0.35 s⁻¹ | 1020 ± 410 M⁻¹ s⁻¹ |  |  |  | 
C[S+]([O-])CCCCN=C=S (stereo not drawn) [1a, 4MSOB-ITC] |  |  |  |  |  |  |  |  | 747 ± 338 µM | 1210 ± 890 µM | 1220 ± 839 µM | 1130 ± 578 µM
BbGSTN21 (Beauveria bassiana ARSEF 2860) | 448.48 ± 226.89 µM | 2.39 µmol/min/mg | 1 ± 0.24 s⁻¹ | 2230 ± 540 M⁻¹ s⁻¹ | 1191.89 ± 1464.92 µM | 0.97 µmol/min/mg | 0.41 ± 0.36 s⁻¹ | 340 ± 300 M⁻¹ s⁻¹ |  |  |  | 
BbGSTUre2p3 (Beauveria bassiana ARSEF 2860) | 831.61 ± 572.57 µM | 0.59 µmol/min/mg | 0.27 ± 0.11 s⁻¹ | 320 ± 130 M⁻¹ s⁻¹ | 71.76 ± 38.91 µM | 0.08 µmol/min/mg | 0.04 ± 0.01 s⁻¹ | 490 ± 80 M⁻¹ s⁻¹ |  |  |  | 
BbGSTUre2p2 (Beauveria bassiana ARSEF 2860) | 487.23 ± 266.11 µM | 0.44 µmol/min/mg | 0.18 ± 0.05 s⁻¹ | 370 ± 100 M⁻¹ s⁻¹ | 223.06 ± 86.81 µM | 0.15 µmol/min/mg | 0.06 ± 0.01 s⁻¹ | 280 ± 50 M⁻¹ s⁻¹ |  |  |  | 
